# Source: PMC12844804, “Paving the Way for CCK2R-Targeted Peptide Receptor Radionuclide Therapy with [^177Lu]Lu-DOTA-MGS5 in Patients with Small Cell Lung Cancer” (Pharmaceutics, 2026)
# Read-outs that look alike come from different tables or passages of the source.
# Legend:
# [1] = test system: patients with advanced MTC; details: human, in vivo; cited from earlier work
# Description: So far, ^177Lu-labeled peptides targeting CCK2R have been used for PRRT in patients with advanced MTC. […] In a dose escalation study, six patients with advanced MTC were treated with up to three to four cycles of [^177Lu]Lu-PP-F11N (3 × 6 GBq or 4 × 8 GBq) ...
# patient with ED-SCLC = format: in vivo, human
# Description: A patient diagnosed with SCLC (initial stage: T4 N3 M1b with primary tumor of the left central lung and possible metastasis to the left adrenal gland) completed first-line systemic therapy with carboplatin/etoposide/atezolizumab (schedule: day 1–day 3, every three weeks) followed by maintenance therapy with atezolizumab and prophylactic cranial irradiation (fractions of 2 Gy each, reaching a total dose of 30 Gy; cognitive preservation with memantine). Subsequently, the entire primary tumor region, including the selectively involved lymph nodes on the left central side, was irradiated (fractions of 2 Gy, resulting in a total dose of 60 Gy). After completing EBRT approximately six months after diagnosis, the disease remained stable for the following four months. Ten months after diagnosis, a new metastasis to the right adrenal gland occurred, and re-induction therapy with carboplatin/etoposide/atezolizumab was administered (a total of four cycles; schedule: day 1–day 3, every three weeks). In the follow-up CT scan, progressive disease was identified again, and third-line therapy with cyclophosphamide/doxorubicin/vincristine was initiated (a total of four cycles; schedule: day 1–day 2, every three weeks). […] After 2 cycles, the disease again progressed. This time, there was progression of the primary tumor, liver metastases and new lymph node metastases. Thus, alternative image-guided treatment strategies were evaluated. […] Thus, the patient was considered eligible for PRRT with [^177Lu]Lu-DOTA-MGS5. PRRT was performed under the responsibility of the treating physician and after tumor board approval. According to the Austrian Medicines Act (Arzneimittelgesetz §8), named patient use (“Heilversuch”) was not subject to authorization by or notification to the authorities. Written informed consent was obtained from the patient. All procedures were in accordance with the principles of the 1964 Declaration of Helsinki and its subsequent amendments. The retrospective analysis of the data of the patient was exempted from consultation with the Ethics Committee by the Medical University of Innsbruck.
# Adequate hydration was ensured through intravenous infusion of 1000 mL of 0.9% saline solution at a rate of 300 mL/h, starting 30 min before and continuing for 2 h after treatment administration. The patient received prophylactic antiemetic therapy with 4 mg ondansetron, as well as 4 mg dexamethasone and 40 mg pantoprazole, given 20 min before the treatment. Prophylactic antiemetic therapy was repeated 12 h after therapy.
# [^177Lu]Lu-DOTA-MGS5 was administered intravenously via a dedicated peristaltic infusion pump system over a period of 15–20 min. The patient was discharged at the third day following therapy. The treatment was repeated approximately every four weeks.
# Whole-body SPECT/CT after each therapy cycle was performed using a dual-head SPECT/CT system (NM/CT 870 DR; GE Healthcare, Chicago, IL, USA) approximately 24 h after injection of [^177Lu]Lu-DOTA-MGS5. The acquisition consisted of 60 projections over 360° with an angular step of 6° and a dwell time of 20 s per projection. A medium-energy general-purpose collimator was used. The primary energy window was set to 187.2–228.8 keV and the scatter window to 169.1–186.9 keV. SPECT images were reconstructed using the manufacturer’s proprietary algorithms (OSEM with resolution recovery), using 2 iterations and 10 subsets and no post-reconstruction filtering. The reconstructed matrix size was 128 × 128, with a pixel size of 4.42 mm. Photon scatter correction was performed using the dual energy window method, and attenuation correction was performed using a low-dose CT scan acquired at 120 kVp, 30 mAs effective, with CareDose4D activated. Whole-body planar imaging was performed in anterior and posterior views using the same system. The scan was conducted in supine position, feet-first orientation. The table traversed 1.14 m at a speed of 10 cm/min. […]
# [2] = human, in vivo, iv; cited from earlier work
# Description: Due to disease progression observed at the radiologic follow-up examination during fourth-line treatment with topotecan (Figure 4a–f) and following confirmation of intense tracer uptake on [^68Ga]Ga-DOTA-MGS5 PET/CT, the patient underwent a preliminary dosimetric evaluation with [^177Lu]Lu-DOTA-MGS5 to calculate the absorbed dose to organs at risk and the tumor. After the intravenous administration of 1.5 GBq [^177Lu]Lu-DOTA-MGS5 (corresponding to a peptide dose of less than 100 µg), scintigraphic images were acquired at 30 min, 4 h, 24 h, 72 h and 96 h p.i. (Supplementary Figure S3A). As prev ...
# [3] = human, in vivo
# Description: For dosimetry, both planar and SPECT/CT imaging were performed at nominal time points of 30 min and 4, 24, 72 and 96 h post-injection (p.i.). The acquisition protocol for the first three time points followed the procedure described above. For the 72 and 96 h scans, the dwell time per projection for SPECT acquisition was increased to 24 s, and the planar scan speed was reduced to 8 cm/min to compensate for the reduced count statistics at later time points. The gamma camera sensitivity was calibrated according to the GE Healthcare-recommended protocol (DICOM Conformance Statement: NM General Purpose 600/800 Series, Rev. 15, 2018). A Petri dish containing a known activity of lutetium-177 was used as the calibration source, yielding a calibration factor of 5.2 cps/MBq. To correct for partial volume effects (PVEs), recovery coefficients (RCs) were determined using an IEC-NEMA phantom with fillable spheres of varying diameters, and a Jaszczak phantom containing a 60 mm sphere (Data Spectrum Corporation, Hillsborough, NC, USA). For each sphere, RCs were calculated, and a logarithmic regression model was fitted to generate a recovery curve. Two selected well-delineable lesions were segmented on 24 h p.i. SPECT images using a 41% isocontour threshold in Affinity 3.0 (Hermes Medical Solutions, Stockholm, Sweden). Subsequently, SUVmax values normalized to body weight were computed and corrected for PVEs using the corresponding RCs. […] (Supplementary Figure S3A). […] Additionally, the mean absorbed dose to the tumor was 12.5 ± 10.2 Gy/GBq (range: 1.2-28 Gy/GBq) across five well-delineated lesions. The time-activity curves for kidneys, stomach wall and two selected lesions were fitted and extrapolated using non-linear regression. […] A tri-exponential function was used for the kidneys, while a bi-exponential model (with k3 = 0) was applied for the stomach wall and the two lesions. […]
# A431-CCK2R cells [4] = details: ~100 nM, 24 h treatment, 12 days colony formation, mean ± SD of four independent experiments in triplicate
# Description: After this treatment, the medium was aspirated and the cells were gently washed twice with phosphate-buffered saline (PBS) and then incubated at 37 °C for 12 days to allow colony formation. At the end of the incubation period, the culture medium was removed, and the wells were gently rinsed twice with PBS.
# Colonies were fixed by adding 1 mL of a 3:1 methanol–glacial acetic acid solution to each well and incubated for 20 min at room temperature in a chemical hood. The solution was removed and the fixed cells gently rinsed twice with 1 mL of PBS.
# Staining was performed using 1 mL of Giemsa stain (modified solution; Sigma-Aldrich, St. Louis, MO, USA, CAS No. 32884) diluted 3.5:10 in Milli-Q water. Plates were incubated with the staining solution for 2 h at room temperature. After staining, wells were rinsed twice with Milli-Q water, and plates were inverted on absorbent paper to air-dry.
# Colonies were counted manually, with each visible purple-stained cluster considered as one colony. […] Each data point represents the mean ± standard deviation (SD) of four independent experiments, each performed in triplicate.
# A431-CCK2R cells [5] = format: cell-based, human; details: ~250 kBq, 2 nM/well; for relative viability: viability 72 h after treatment, % of non-irradiated control, n = 3
# Description: To investigate the cytotoxic effect of [^177Lu]Lu-DOTA-MGS5 on A431-CCK2R cells in comparison with EBRT, cells were counted using a TC20 automated cell counter (Bio-Rad Laboratories, Hercules, CA, USA), seeded at a density of 1 × 10^5 cells per well in 6-well plates and incubated at 37 °C with 5% CO2. After 24 h, cells were irradiated with varying doses (2, 4 and 8 Gy) using a linear accelerator (Elekta Precise, Elekta Oncology Systems, Crawley, England, UK) or by incubation with [^177Lu]Lu-DOTA-MGS5 (~250 kBq, 2 nM/well) for 4 and 24 h followed by replacement with fresh medium. Incubation periods of 4 h and 24 h were selected based on the previously established internalization kinetics and the stability data obtained for [^177Lu]Lu-DOTA-MGS5 [25]. At the time point of 72 h after treatment, cell viability was assessed using a Beckman Coulter Vi-CELL AS cell viability analyzer (Beckman Coulter, Fullerton, CA, USA). The supernatant from each well was collected in 15 mL Falcon tubes. Cells were then washed twice with 1 mL of serum-free medium, and the wash fractions were combined with the respective supernatants. Trypsin (300 µL) was added to each well, and plates were incubated until detachment. Following detachment, 1 mL of medium was added to each well, and cells were rinsed and transferred to their respective Falcon tubes. This washing step was repeated twice, reaching a total volume of 3 mL. Cells were pelleted by centrifugation in a benchtop centrifuge (Megafuge™ 8; Thermo Fisher Scientific, Waltham, MA, USA) at 2000 rpm for 8 min at 4 °C, and the supernatant was discarded. Pellets were resuspended in 1 mL of cold serum-free medium. Samples were loaded into the Vi-CELL AS analyzer according to the manufacturer’s instructions. The number of viable cells in each treatment group was normalized to the mean number of viable cells in the non-irradiated control group and expressed as a percentage of the control.
compound,measurement,setting,value
"DOTA-(DGlu)6-Ala-Tyr-Gly-Trp-Nle-Asp-Phe-NH2 [[^177Lu]Lu-PP-F11N, ^177Lu-labeled CCK2R-targeting agonist]",dose-limiting toxicity,[1],without signs of dose-limiting toxicity
same,median absorbed tumor dose,[1],0.88 Gy/GBq
"CCCC[C@@H](C(=O)N[C@@H](CC(=O)O)C(=O)N[C@@H](Cc1cccc2ccccc12)C(N)=O)N(C)C(=O)[C@H](Cc1c[nH]c2ccccc12)NC(=O)CNC(=O)[C@H](Cc1ccc(O)cc1)NC(=O)[C@H](C)NC(=O)[C@@H](CCC(=O)O)NC(=O)CN1CCN(CC(=O)O)CCN(CC(=O)O)CCN(CC(=O)O)CC1 [[^177Lu]Lu-DOTA-MGS5, metal not drawn]",change of SUVmax in two well-delineated lesions,"patient with ED-SCLC; SPECT 24 h p.i., dosimetry and first three cycles, PVE corrected",only a minor decrease
same,uptake in new disseminated liver metastases,patient with ED-SCLC; SPECT/CT after the fourth cycle,negative
same,clinical symptoms,patient with ED-SCLC; after the second administration,improvement
same,lesion uptake on serial SPECT/CT after each treatment cycle,patient with ED-SCLC; approximately 24 h p.i.,overall stable uptake
same,follow-up contrast-enhanced CT finding,patient with ED-SCLC; at the fourth cycle of PRRT,continued disease progression
same,GGT,"patient with ED-SCLC; human, in vivo",74 U/L
same,GOT,"patient with ED-SCLC; human, in vivo",44 U/L
same,GPT,"patient with ED-SCLC; human, in vivo",14 U/L
same,Karnofsky Index,"patient with ED-SCLC; human, in vivo",100%
same,"absorbed dose delivered to the tumor lesions during PRRT, range","patient with ED-SCLC; human, in vivo",21-482 Gy
same,"absorbed dose of healthy tissue, bone marrow","patient with ED-SCLC; human, in vivo",0.4 Gy
same,"absorbed dose of healthy tissue, kidneys","patient with ED-SCLC; human, in vivo",5 Gy
same,"absorbed dose of healthy tissue, stomach","patient with ED-SCLC; human, in vivo",7 Gy
same,adverse effect following the first administration,"patient with ED-SCLC; human, in vivo",mild nausea
same,creatinine,"patient with ED-SCLC; human, in vivo",0.64 mg/dL
same,eGFR,"patient with ED-SCLC; human, in vivo",> 60 mL/min/1.73 m^2
same,"hematological, renal or hepatic toxicities in laboratory tests","patient with ED-SCLC; human, in vivo","no hematological, renal or hepatic toxicities"
same,mean absorbed dose delivered to the tumor lesions during PRRT,"patient with ED-SCLC; human, in vivo",215 Gy
same,weight loss,"patient with ED-SCLC; human, in vivo",approximately 2 kg
same,NSE levels,patient with ED-SCLC; tumor marker during four administrations,slight reduction after the first three administrations but increased by the fourth administration
same,absorbed dose to the bone marrow,[2],0.022 Gy/GBq
same,absorbed dose to the kidneys,[2],0.28 Gy/GBq
same,absorbed dose to the stomach,[2],0.42 Gy/GBq
same,"absorbed dose to the tumor, range",[2],1.2–28 Gy/GBq
same,mean absorbed dose to the tumor,[2],12.5 ± 10.2 Gy/GBq
same,"tracer clearance kinetics, CCK2R-positive stomach wall",[3],slower and more prolonged washout
same,"tracer clearance kinetics, kidneys",[3],rapid initial decline in activity
same,"tracer clearance kinetics, thoracic wall lesion and gastrointestinal tract lesion",[3],gradual mono-exponential decrease in activity
same,clonogenic survival,A431-CCK2R cells [4]; 2 MBq/well,54.9 ± 10.9%
same,clonogenic survival,A431-CCK2R cells [4]; 250 kBq/well,82.7 ± 6.5%
same,EBRT dose with comparable response,"A431-CCK2R cells [5]; 4 h and 24 h incubation, compared with EBRT 2, 4 and 8 Gy",2-4 Gy
same,relative viability,A431-CCK2R cells [5]; 4 h incubation,58.5 ± 3.3%
same,relative viability,A431-CCK2R cells [5]; 24 h incubation,55.5 ± 8.3%
